Laboratory results as given in paper PMC8509707.

Molecular target: Recombinant His-tagged C-terminal ^ECFTO domain (CD-FTO) (human)
Assay: SEC; ^BTCaM (7.6 µM) and/or CD-FTO (15.2 µM), 10 min at 4 °C, SEC650 column in SEC1 buffer (50 mM MES pH 6.5, 150 mM NaCl, 10% glycerol, 1 mM 2-OG, 0.5 mM MnCl2, 0.5 mM CaCl2)

stoichiometry N: 2
Substance: Recombinant His-tagged C-terminal ^ECFTO domain (CD-FTO) (domain or fragment)
